Laboratory results as given in patent US20050059588A1, “Peptides which generate antibodies resulting in lysis of pathologically adherent erythrocytes” (REGENTS OF THE UNIVERSITY OF CALIFORNIA, priority 2003, published 2005).

Columns and labels:
[1] = target: thrombospondin (TSP), immobilized (UniProt P07996); test: cytoadherence assay, IEs on immobilized TSP, mean and SD of triplicates
[2] = target: Partially purified CD36 (CD36 fraction) from human platelets, immobilized (human) (UniProt P16671); test: cytoadherence assay, IEs on immobilized CD36, mean and SD of triplicates
Partially purified CD36 (CD36 fraction) from human platelets, immobilized (human), sequence (P16671 2-472 limits assumed, form in doubt): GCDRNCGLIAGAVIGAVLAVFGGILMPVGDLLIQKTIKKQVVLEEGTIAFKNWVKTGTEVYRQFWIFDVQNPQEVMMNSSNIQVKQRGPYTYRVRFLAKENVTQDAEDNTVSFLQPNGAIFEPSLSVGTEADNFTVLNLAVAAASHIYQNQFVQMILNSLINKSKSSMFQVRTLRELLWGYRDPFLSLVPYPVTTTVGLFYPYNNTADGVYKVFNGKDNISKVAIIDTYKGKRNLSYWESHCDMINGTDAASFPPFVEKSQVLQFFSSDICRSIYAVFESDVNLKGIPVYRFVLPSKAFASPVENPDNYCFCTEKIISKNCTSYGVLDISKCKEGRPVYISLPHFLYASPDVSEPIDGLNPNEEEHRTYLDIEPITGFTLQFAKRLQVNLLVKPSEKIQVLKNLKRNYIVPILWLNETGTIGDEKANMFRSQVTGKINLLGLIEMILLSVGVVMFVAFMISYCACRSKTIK

thrombospondin (TSP), immobilized, sequence (P07996 19-1170 limits assumed): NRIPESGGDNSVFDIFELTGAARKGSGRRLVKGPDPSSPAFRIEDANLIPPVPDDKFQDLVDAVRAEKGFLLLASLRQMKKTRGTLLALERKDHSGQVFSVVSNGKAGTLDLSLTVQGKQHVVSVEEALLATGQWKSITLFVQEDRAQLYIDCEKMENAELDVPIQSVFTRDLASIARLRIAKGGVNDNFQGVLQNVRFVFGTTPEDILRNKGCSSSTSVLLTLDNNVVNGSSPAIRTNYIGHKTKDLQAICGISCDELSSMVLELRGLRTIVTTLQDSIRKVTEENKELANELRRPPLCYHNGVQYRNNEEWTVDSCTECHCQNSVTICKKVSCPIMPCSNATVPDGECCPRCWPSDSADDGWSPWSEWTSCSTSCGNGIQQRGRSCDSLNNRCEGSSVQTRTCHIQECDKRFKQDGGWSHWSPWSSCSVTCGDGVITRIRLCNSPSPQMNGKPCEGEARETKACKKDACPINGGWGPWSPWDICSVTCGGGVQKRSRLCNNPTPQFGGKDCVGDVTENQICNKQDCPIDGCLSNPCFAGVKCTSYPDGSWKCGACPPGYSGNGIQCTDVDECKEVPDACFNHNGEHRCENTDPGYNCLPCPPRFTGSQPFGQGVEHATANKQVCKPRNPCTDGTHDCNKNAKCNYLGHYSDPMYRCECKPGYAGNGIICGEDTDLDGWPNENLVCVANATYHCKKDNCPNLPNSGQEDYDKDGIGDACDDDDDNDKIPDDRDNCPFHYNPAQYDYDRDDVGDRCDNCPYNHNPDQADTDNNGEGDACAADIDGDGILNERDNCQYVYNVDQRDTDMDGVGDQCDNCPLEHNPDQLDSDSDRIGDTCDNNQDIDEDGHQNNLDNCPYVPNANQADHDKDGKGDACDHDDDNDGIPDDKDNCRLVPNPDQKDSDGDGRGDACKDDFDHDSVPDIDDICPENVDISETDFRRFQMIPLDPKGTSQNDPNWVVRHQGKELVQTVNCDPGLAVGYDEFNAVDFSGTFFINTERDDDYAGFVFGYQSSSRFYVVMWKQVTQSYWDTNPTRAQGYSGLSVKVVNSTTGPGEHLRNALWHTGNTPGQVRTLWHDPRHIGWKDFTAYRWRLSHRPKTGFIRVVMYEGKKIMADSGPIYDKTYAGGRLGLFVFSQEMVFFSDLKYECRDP

Chymotrypsin cleaved AE1 on infected erythrocytes (from UniProt P02730 1-911)
percentage of bound IEs/mm^2 as compared to untreated cells [1]: 81%
percentage of bound IEs/mm^2 as compared to untreated cells [2]: 10.2%
